assay: soluble on expression in E. coli; label from the status in PepcDB or PDB records

| Sequence | soluble on expression in E. coli |
| --- | --- |
| MTQHNDNDDDAALFRAAIGPVRPLRPSEMAITIKPPSRPRRRIIQHHQDEAKSKFAQLLRESAPLEAGDTISYRSKALPSRLFQRLKRGQFSVQDELDLHGATVVQAETLLRQFLLEAHMYEYGCVRIIHGKGLQSNGGTPVLKNLVNQLLRLRKDVLAFHSSPPAQGGTGAVLVLLTHH | soluble |
| MSEQYVYQHGTLGGLMESLMAGTAEIGTLLTQGDFGIGTLEGSNGEIILLDGTLYHANQTGEITILEGEELTPYAAVTRFQEDGAFPVSTETDENIKAQILEKISPNFFAAIKISGLFAKMHVRVAPKQEKPYPPFVEAARNQPEFTAENIQGTVVGFFTPKLFHGASAAGFHLHFISEDHQFGGHILDFGIKQGTVSWMETAELRQHFPVHDADYRNKEIDIAKALSAIEEAE | not soluble |
| HQQLNSLPTMEGPPTFNPPVPYFGRLQGGLTARRTIIIKGYVPPTGKSFAINFKVGSSGDIALHINPRMGNGTVVRNSLLNGSWGSEEKKITHNPFGPGQFFDLSIRCGLDRFKVYANGQHLFDFAHRLSAFQRVDTLEIQGDVTLSYVQI | soluble |
| MPEPTADAPTVPKARSCPFLPPDGIADIRAAAPVTRATFTSGHEAWLVTGYEEVRALLRDSSFSVQVPHALHTQDGVVTQKPGRGSLLWQDEPEHTSDRKLLAKEFTVRRMQALRPNIQRIVDEHLDAIEARGGPVDLVKTFANAVPSMVISDLFGVPVERRAEFQDIAEAMMRVDQDAAATEAAGMRLGGLLYQLVQERRANPGDDLISALITTEDPDGVVDDMFLMNAAGTLLIAAHDTTACMIGLGTALLLDSPDQLALLREDPSLVGNAVEELLRYLTIGQFGGERVATRDVELGGVRIAKGEQVVAHVLAADFDPAFVEEPERFDITRRPAPHLAFGFGAHQCIGQQLARIELQIVFETLFRRLPGLRLAKPVEELRFRHDIVFYGVHELPVTWHHHH | soluble |
| MRFIHALLLAGIAHSAYASEKLTFKTDLEKLEREKAAQIGVAIVDPQGEIVAGHRMAQRFAMCSTFKFPLAALVFERIDSGTERGDRKLSYGPDMIVEWSPATERFLASGHMTVLEAAQAAVQLSDNGATNLLLREIGGPAAMTQYFRKIGDSVSRLDRKEPEMGDNTPGDLRDTTTPIAMARTVAKVLYGGALTSTSTHTIERWLIGNQTGDATLRAGFPKDWVVGEKTGTCANGGRNDIGFFKAQERDYAVAVYTTAPKLSAVERDELVASVGQVITQLILSTDK | soluble |
| MREDNQSLSHTTWNCKYHIVFAPKYRRQIIYGRYKASIGRIIRDLCERKGVIIHEANACSDHIHMLISIPPKLSVSSFMGYLKGKSSLMIFDKHANLKYKYGNRKFWCRGYYVDTVGRNQKVIAEYIQNQLQEDRVADQLTLFESVDPFTGEINKRK | not soluble |
| SKMTYADGTPIANIKSDLIRTRINGDQMSPLLKKAIISTEDEYFEEHHGVVPKALVRALISDATGIGGSSGGSTLTQQLVKQQILTDETTFKRKANEILLALRIEKYFSKDEIVTTYLNVSPFGRNNKGENIAGVEEAAKGLFGKSAKDLNLPQAAFIAGLPQSPIVYTPYTNT | not soluble |
| MGSDKIHHHHHHMLLAVDHTTHYVFSGPVSHGLQRLRLAPKSTAGQRVVEWSMQFEGARLQAEYDDANNNRVSLISFDPGVSQVTIRCEGLVDTNDEAGIIGKHAGFMPMWQFLEQTDLTRAGARTRALLAALPHEDSTLVKLHALSALVRERVEYASGHTDVDTTAEGALAAGRGVCQDHAHIFIGAARALGIPARYACGYLMMDDRVEQDAGHAWAEAHVESLGWVGFDVSNGISPDARYIRVATGRDYRDAAPVTGIRYGAMDEAMHVRLAVQQQRVEQ | not soluble |
| MSLDIRGMTVEEAEPVVKKFIDDLMMNGISKGYIIHGKGTGKLASGVWEILRKDKRVVSFRFGTPSEGGTGVTVVEVKEGHHHHHH | not soluble |
| MGSDKIHHHHHHDLTEEIHSSVIAENYYNNAGEVMAAMMRPWGHFCGTMQVAQSPWSCNELSSDCAAWPQKGRHGYDNGDWIRLHRHQWIPTDGQVVDAWKKLFEGIGYANNFLTDTENIDFEALQVPMSKAQAQAEMRVYRAYCYWYVMDMFGTAPICEKIGEINPSSKSRAELFAWIEKELNESIPSLSESKTETYGRVSKWGAYALLARLYLNAEIYTGQARWDDCIAACDELAKGGFALDKKWNDTFRADNDKRSTEIIWSIVYDEVYAKGMGWYQRWLHYAHQTGWDLQSGPWNGLVTQPTFYDSFADNDLRKIEGFLIGKQYPRKVDENGNYYYDTTAEPLKGSEEYNGQDLVFVNYIKSMTEGEENSGARSIKYEIQPGTTGDMNNDWVMFRYSEVIYNKAEALMRKNGGKATQEVVDMINSVRQRSFKAEDWEKAKYTTATLTMDEFLAEKGREFAFEGIRRTDLVRFNKFVTTSWWDKTASNEPKRNIFPIPQRQLDANANLSPNEANSLF | not soluble |
| MSLKFTAIDFETANEKRNSPCSIGIVVVKDGHVVEKSHHLIRPKEMRFMPINIGIHGIRPAMVEKEPEFDKVWEKIKHYFDDTLVIAHNASFDISVLRKSAELYNIELPEFNYICTMKLARNFYKGIENAKLNTVNNFLGYEFRHHDALYDALACSNIMLSISKELKCKDITEISKLLGEGHHHHHH | not soluble |
| MGSDKIHHHHHHMYLLVYGSLRYGFELNHLVAKSRFVGLGYIEGYEMYDLGNYPGVIKGDGIVWGEVYEIDENLIKLLDEVEDYKGSPDDLYVREKTRVYFDQKRKYYLDNVYFYRYNKEIVKNMEKIEDGDYSAWSGMPIIVNYFAYAENTNERILHQRGVDMILSETPAYTKGYRLIFNIPCKYGYCANLIEDESGIICGYLQKVFLHTLNSLDKAEQHLIKYIREVVKVYDRNGKEYFAYAYVSSYKENRKKPSEEYVKIIREGLMRGWGNECVSTGLYDEPGIS | not soluble |
| MHSPDPFTDHPDSDDSFEKFVPTPNVNRRRSDAIIVSDEGSFDGITGYSQVTVIENCPNTTVLEDENKRANPDDTITRMLESSDEEDETENNSDNDALADLLKSFRTEDQKRKEVDIEQAANISIDIFGDLIEEVDSEHEAAEYPDREGGNSMDKQGTMLPVEVPIQNNIKLIPRKRRLEPKSYDCEPSTSAAHGPVGVVSSDSGEYWNQQKTITIHGQNFEINNFNDYMRMKITKLNHQVNHGYAKPLENVSRIMEGFSVFVNGYTDPPALVIRDLMISHGGEYHCYYQHGITSYTIASSIATAKINRIRENEIFIKADWITESIAAGKPLDYRDFLIYEKGSVEKGQMQQFLTISTRNTGGNNETTSSNQFSDARNPNFIRDYYARSRLHLISTLAQDMKDFVANLKLEGKLTEKCFEEKELIDMKSLSNEISRESTVFHVDLDCFFVSVAVRNRIDLKHKEVAITHSKGTISNSMSEVASCSYAARDCGVKNGMLVRDALQKCPQLTLLPYQFEDYVQVSRKIYEILASYTLEVRAVSCDEMYINMSSFCEKYEINDPTILAEHIRKVIREKTQCPASVGIGSTSLLARLATRHAKPDGVFWVNAHKKNEFISEEKVKDLPGFGYEMMNRLTSFFGDITKCRELQLKTERELVPVFGPKLASKILRQCRGIEEDPDDFWATHVRKSVSCDINYGIRFTKRGEVIQLMTAIGAELERKLIDSKLTAGSITLKLMVRSANAPIQTSKFMGHGICDTFTKTCNLNVPTTRGESLTSEAMKLYAKVSPKVEDLRGVGVTCGKLKSKLKKDAATAVQEMFGKTSRVGNMARTDEQLNIIPRNEDELDKEPVIIPAVTEDLEVQSIPRQINFRVANDIDIPEIVKSTLLNGRSDNNLELEDLEDDGLVENRLAELECIIQNEPTKESVTNLQEMLSTLLNYGKLSAFETVFRKFEEISMDSSRCDTAWFSVFHLMVPFIEEESKDLLEFPIATTRNLGAMIASNTDNTSISSPEPFVPKEVFVIDSTKHT | not soluble |
| MTGAATAAENSATQLEFYRKALNFNVIGRYDPKIKQLLFHTPHASLYKWDFKKDEWNKLEYQGVLAIYLRDVSQNTNLLPVSPQEVDIFDSQNGSNNIQVNNGSDNSNRNSSGNGNSYKSNDSLTYNCGKTLSGKDIYNYGLIILNRINPDNFSMGIVPNSVVNKRKVFNAEEDTLNPLECMGVEVKDELVIIKNLKHEVYGIWIHTVSDRQNIYELIKYLLENEPKDSFA | soluble |
| MSLATIYDVAKAAGVSPKTVSRVLNDDAPVNESTRQAVNEAIAALDYLPSQAARMMRSSRSRLIGLITGAISQEIGPAVQSGLPEMNIVQAIQREMSAQGKILMISDTGGRADAAPVLARTFAQHRVEGLIYVADHHREIEMDLTSGNCPVVLVNCYDAAATPCVLPDDEAGEAALVARLIEAGHRRIGFLPPDRTQPAARLRLDGYRTALAAAGLAYDPDLVAHVHDPDADRARALLTEALDALLSLDAPPSVICCTNDEMAMRLYGLLRSRGLRVPDDISVAGYDDHKTISEMLYPQLTTVVLPYSEMGRQAARLMLELIEGKPLASPGPTLVDGPVVWRSSVTEGHHHHHH | soluble |
| MSLKATSSDDKVTFHALNGDVKVPKNPKRIAVQNYPDEVASLGANVVGTDSWAFPNTFLSKDQKKNMVDLGAPKFNMEKLIAQNPDLIITVDKDQVADYQKVAPTVLVNYKDLSGMNKSLDYFAKLLNREDEKASFLKNFKKEADKQKEKLAKVDVKPAKNTISLLELQGDKVYAFGDNFARGGQALTTGLGFKESSKMAELSKGVGYAEVNTESLGEFDADYIFIDFADKDKEQYAALKNNPAWQNLKAVKEGHVITMDYDKVYFFGGPTAAKEELSLYTDAIIKATKEGHHHHHH | soluble |
| AAGTAKGHNPTEFPTIYDASSAPTAANTTVGIITIGGVSQTLQDLQQFTSANGLASVNTQTIQTGSSNGDYSDDQQGQGEWDLDSQSIVGSAGGAVQQLLFYMADQSASGNTGLTQAFNQAVSDNVAKVINVSLGWCEADANADGTLQAEDRIFATAAAQGQTFSVSSGDEGVYECNNRGYPDGSTYSVSWPASSPNVIAVGGTTLYTTSAGAYSNETVWNEGLDSNGKLWATGGGYSVYESKPSWQSVVSGTPGRRLLPDISFDAAQGTGALIYNYGQLQQIGGTSLASPIFVGLWARLQSANSNSLGFPAASFYSAISSTPSLVHDVKSGNNGYGGYGYNAGTGWDYPTGWGSLDIAKLSAYIRSNGFGH | soluble |
| MDTKVVPKISEKICEKFANIINKKPQKKGKEYKIGVDLGTANVVVAVLNENNEPVAGAMKSAQVVKDGVVVDFVGAKEIVKRMVDFLNEELEGKLRVAACAIPPGTGEGVSKATKYVVEEAGLEVIKVVDEPTAAAKLLEIMDGIVVDIGGGTTGISVLKDGKVVYVADEPTGGTHFTLVLAGHFNISFEEAEKIKLDVQRQKLLTPILKPCMEKVAEIIKRHTFSFDNIDTIYLVGGASALHGLKEVVENTTRKKVIVPQYPIFITPLGIALSCEKG | not soluble |
| MSSRVPILKVDDYWVVAIEETLHDQSVIQFKEELLHNITGVAGKGLVIDISALEVVDSFVTRVLIEISRLAELLGLPFVLTGIKPAVAITLTEMGLDLRGMATALNLQKGLDKLKNLARMEQR | soluble |
| MSLLIVQKYGGTSMGSIERIHNVAQRVLESVTLGHQVVVVVSAMSGETDRLLEFGKNFSHNPNKREMDRIVSVGELVSSAALSMALERYGHRAISLSGKEAGILTSSHFQNAVIQSIDTKRITELLEKNYIVVIAGFQGADIQGETTTLGRGGSDLSAVALAGALKAHLCEIYTDVDGVYTTDPRIEEKAQKIAQISYDEMLELASMGAKVLLNRSVELAKKLSVKLVTRNSFNHSEGTLIVAEKDFKGERMETPIVSGIALDKNQARVSMEGVEDRPGIAAEIFGALAEYRINVDMIVQTIGRDGKTDLDFTIVKTQIEETKQALKPFLAQMDSIDYDENIAKVSIVGVGMKSHSGVASIAFKALAKDNINIMMISTSEIKISVLIDIKYAELAVRTLHAVYQLDQEGHHHHHH | not soluble |

Source: the DeepSol protein solubility set
